Measurements from patent US20260234269A1 (TRUEBINDING, published 2026).
Changes are numbered by the printed parent chain.

T1: hGal3 peptide 6 (human)
T1 peptide: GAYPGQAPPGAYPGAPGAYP

T2: hGal3 peptide 4 (human)
T2 peptide: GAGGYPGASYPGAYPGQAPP

T3: hGal3 peptide 1 (human)
T3 construct: also called peptide 1 of Gal3
T3 peptide: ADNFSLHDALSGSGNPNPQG

T4: hGal3 peptide 7 (human)
T4 peptide: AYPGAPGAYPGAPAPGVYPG

T5: hGal3 peptide 8 (human)
T5 peptide: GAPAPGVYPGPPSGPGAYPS

B1: 3B11.2G2 (antibody, V domains shown)
VH: QIQLVQSGPELKKPGETVKISCKTSGYKFKTYVMSWVKQAPGKALKWMGWINTYSGVPTYADDFKGRFAFSLETSASTAYLEIINLKNEDTATYFCARDGNYGDPMDYWGQGTSVTVSS
VL: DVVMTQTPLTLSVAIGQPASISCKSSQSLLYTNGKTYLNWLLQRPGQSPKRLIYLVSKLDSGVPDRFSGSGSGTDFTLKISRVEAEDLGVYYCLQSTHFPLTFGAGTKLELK
notes: murine antibody; also called 3B11.2D2
B2: 13A12.2E5 (antibody, V domains shown)
VH: B1 VH
VL: DVVMTQTPLTLSVAIGQPASISCKSSQSLLYTNGKTYLNWLLQRPGQSPKRLIYLLSKLDSGVPDRFSASGSGTDFTLKISRVEAEDLGVYYCLQSTHFPLTFGAGTKLEMK
notes: murine antibody
B3: 24D12.2H9 (antibody, V domains shown)
VH: QVQLKQSGPGLVQPSQSLSITCTVSGFSLTSYGVHWVRQAPGKGLEWLGVIWSGGSTDYNAAFMSRLSISKDNSKSQVFFKMNSLQADDTAIYYCAKSPDGYDVAWFGYWGQGTLVTVSA
VL: DIVMTQSHKFMSTSVGDRVSITCKASQDVRTAVAWYQQKPGQSPKLLIYWASTRHTGVPDRFTGSGSGTDFTLTLSNVQSEDLADYFCQQYSSYPWTFGGGTKLEIK
notes: murine antibody
B4: 846.2H3 (antibody, V domains shown)
VH: QIQLVQSGPELKKPGETVKISCKASGYTFTNYGMNWVKQAPGKGLKWMGWINTYTGEPSYADDFKGRFAFSLETSASTAYLQINNLKNEDMATYFCARWGGYDGDYYAMDYWGQGTSVTVSS
VL: NIMMTQSPSSLAVSAGEKVTMSCKSSQSVLYSSNQKNYLAWYQQKPGQSPKLLIYWASTRESGVPDRFTGSGSGTDFTLTISSVQPEDLAVYYCHQYLSSLTFGAGTKLELK
notes: murine antibody
B5: 846.1F5 (antibody, V domains shown)
VH: B4 VH
VL: B4 VL
notes: murine antibody
B6: 20D11.2C6 (antibody, V domains shown)
VH: EVQLQQSGPELVKPGASVKISCKASGYTFTDFYINWVKQSHGKSLEWIGDINPKNGGINYNPKFKIKATLTVDKSSSTSYMDLRGLTSEDSAVYYCTSGYGFPYWGQGTLVTVSA
VL: DIQMNQSPSSLSASLGDTITITCRASQNIYIWLSWYQQKPGNIPKLLIYKASNLHTGVPSRFSGSGSGTDFTLTISTLQPEDIATYFCLQGQSYPLTFGAGTKLEMK
notes: murine antibody
B7: 15G7.2A7 (antibody, V domains shown)
VH: B6 VH with F32Y, I34M, K54N, I58T, P62Q, I66G, S79A, D82E, G85S
VL: B6 VL with T20S, Y30N, K45Q, T77S, F87Y, E105V
notes: murine antibody
B8: 13G4.2F8 (antibody, V domains shown)
VH: QVQLQQPGAELVKPGASVKLSCKASGYTFTSYWMHWVKQRPGQGLEWIGMIHPNSGSTDYNEKFKNKATLNVDKSSSTAYIQLSSLTSEDSAVYYCTRWGIYYYARDYWGQGTTLTVSS
VL: DIVMTQSQKFMSTSVGERVSITCKASQNVGTNVAWYQQKAGQSLELLIYGASNRHTGVPDRFTGSGSGTDFTLTITNVQSEDMTNYFCEQYSNFPLTFGAGTKLELK
notes: murine antibody
B9: IMT006-5 (antibody, V domains shown)
VH: QVQLVQSGAEVKKPGASVKVSCKASGYSFTNYYMHWVRQAPGQRLEWMGWIYPGSGNTNYNEKFQGRVTITADTSASTAYMELSSLRSEDTAVYYCSTAPGGFDVWGQGTTVTVSS
VL: DIVMTQTPLSLSVTPGQPASISCKSSKSLLHSDGITYLYWYLQKPGQSPQLLIYRMSNLASGVPDRFSGSGSGTDFTLKISRVEAEDVGVYYCAQMLEFPLTFGQGTKLEIKR
notes: humanized antibody derived from 4A11.2B5
B10: IMT006-1 (antibody, V domains shown)
VH: B9 VH with R44G, I70M, A76I, S85R, E89D
VL: B9 VL
notes: humanized antibody derived from 4A11.2B5; also called HuIMT006-1
B11: IMT006-8 (antibody, V domains shown)
VH: B9 VH with M34I, I70L, A79T
VL: B9 VL with T7S, S12P, Q17E, K24R
notes: humanized antibody
B12: 12G5.D7 (antibody, V domains shown)
VH: QVQLKQSGAELVRPGASVKLSCKASGYTFTDYYINWVKQRPGQGLEWIARIYPGTGNTDYNEKFKGRATLTAEKSSSTAYMQLSSLTSEDSAVYFCARFAYYYGSGGYFDYWGHGTTLTVSS
VL: DILMTQSPSSMSVSLGDTVSITCHASQGINSNMGWLQQKPGKSFKGLIYHATNLEDGVPSRFSGSGSGADYSLTISSLESEDFADYYCVQYAQFPPTFGSGTKLEIK
notes: murine antibody
B13: 2D10.2B2 (antibody, V domains shown)
VH: QVQLQQSGPELVKPGASVKISCKASGYTFTDYYINWVKQRPGQGLEWIGWIYPGSNDTKYNEKFKGKATLTVDTSSSTAYMQLGSLTSEDSAVYFCANYFGCSGWFFDVWGTGTTVTVSS
VL: DIVMTQAAFSNPVTLGTSASISCRSSKSLLHSDGITYLYWYLQRPGQSPQLLIYRMSNLASGVPDRFSGSGSGTDFTLRISRVEAEDVGVYYCAQMIEFPLTFGAGTILELK
notes: murine antibody
B14: 4A11.2B5 (antibody, V domains shown)
VH: QVQLQQSGPELVKPGASVKISCKASGYSFTNYYIHWVKQRPGQGLEWIGWIYPGSGNTNYNEKFKGKATLTADTSSSTTNMQLSSLTSEDSAVYYCSTAPGGFDVWGSGTTVTVSS
VL: B13 VL with I97L, I108K
notes: murine antibody; parent of IMT006-1 and IMT006-5
B15: IMT001-4 (antibody, IgG4, V domains shown)
VH: QVQLVQSGSELKKPGASVKVSCKASGYTFTNYGMNWVRQAPGQGLKWMGWINTNTGEPTYVEEFTGRFVFSLETSVSTAYLQISSLKAEDTAVYFCAPYDNFFAYWGQGTTVTVSS
VL: DIVLTQSPLSLPVTPGEPASISCRSSKSLLYKDGKTYLNWFLQKPGQSPQLLIYLMSTHASGVPDRFSGSGSGTDFTLKISRVEAEDVGVYYCQQLVDYPLTFGGGTKLEIKR
notes: also called HuIMT001-4
B16: 4G2.2G6 (antibody, V domains shown)
VH: QIQLVQSGPDLKKPGETVKISCKASGYTFTTYVMSWVKQAPGKDLKWMGWINTHSGVPTYADDFKGRFDFSLETSANTAFLQINNLKNEDTATYFCTRDGNDGDAMDNWGQGTSVTVSS
VL: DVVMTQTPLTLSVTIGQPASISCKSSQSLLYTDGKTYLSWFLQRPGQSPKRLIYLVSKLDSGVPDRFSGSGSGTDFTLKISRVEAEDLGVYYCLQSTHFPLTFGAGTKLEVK
notes: murine antibody
B17: 846T.1H2 (antibody, V domains shown)
VH: QIQLVQSGPELKKPGETVKISCKASGYTFTNYGMNWVKQAPGKGLKWMGWINTNTGEPTYAEEFKGRFAFSLETSASTAYLQINNLKNEDTATYFCATGGGNWDFDYWGQGTTLTVSS
VL: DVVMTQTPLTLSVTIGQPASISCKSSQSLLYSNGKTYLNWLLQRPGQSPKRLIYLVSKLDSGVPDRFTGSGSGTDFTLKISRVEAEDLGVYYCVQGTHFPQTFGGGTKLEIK
notes: murine antibody
B18: 19B5.2E6 (antibody, V domains shown)
VH: QIQLVQSGPELKKPGETVKISCKASGYTFTTYAMSWVKQAPGKGLKWMGWINTYSGVPTYADDLKGRFAFSLETSASTAYLQINNLKNEDTATYFCARGPYAMDYWGQGTSVTVSS
VL: DIQMTQTTSSLSASLGDRVTISCSASQGINNYLNWYQQKPDGTVKLLIYYASSLHSGVPSRFSGSGSGTDYSLTISNLEPEDIATYYCQQYSQVPYTFGSGTKLEIK
notes: murine antibody
B19: 20H5.A3 (antibody, V domains shown)
VH: B18 VH with T17S, T28A, A33G, K38Q, I51V, Y60C, L64F, K87R
VL: B18 VL with S22N, G28D, N30S, A51T, H55L, Y87F, Q93K, V94L, K103H
notes: murine antibody
B20: 23H9.2E4 (antibody, V domains shown)
VH: B18 VH
VL: B18 VL
notes: murine antibody
B21: 6H6.2D6 (antibody, V domains shown)
VH: B18 VH with A33G, G49A, L64F, K87T
VL: B18 VL with N30S, A51T, Q93E, V94L
notes: murine antibody
B22: 13H12.2F8 (antibody, V domains shown)
VH: QIQLVQSGPELKKPGETVKISCKASGYTFTTYGMSWVKQAPGKGLKWMGWINTYSGVPTYADDFKGRFAFSLETSASTAYLQINNLKNEDTATYFCAVPYEYDGAYWGQGTLVTVSA
VL: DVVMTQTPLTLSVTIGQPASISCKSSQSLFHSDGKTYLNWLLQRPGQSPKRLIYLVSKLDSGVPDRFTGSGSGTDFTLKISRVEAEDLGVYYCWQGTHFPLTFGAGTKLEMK
notes: murine antibody
B23: 19D9.2E5 (antibody, V domains shown)
VH: B22 VH with S35G, A76T, T91M, V98T
VL: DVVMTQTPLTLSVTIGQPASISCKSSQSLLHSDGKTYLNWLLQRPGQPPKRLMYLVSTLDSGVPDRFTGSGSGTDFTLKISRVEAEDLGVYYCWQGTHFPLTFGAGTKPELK
notes: murine antibody
B24: 14H10.2C9 (antibody, V domains shown)
VH: B22 VH with S35G, G44D, N84S, A97S, V98T
VL: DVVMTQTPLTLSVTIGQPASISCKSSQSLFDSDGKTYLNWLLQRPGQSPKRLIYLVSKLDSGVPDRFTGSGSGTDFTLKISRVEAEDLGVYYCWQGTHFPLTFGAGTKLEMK
notes: murine antibody

What was measured:
[1] = target: T6, Human Galectin-3 protein (Acro Biosystems, GA3-H5129) (human, UniProt P17931 2-250); assay: ELISA, hGal3 coated, antibody 3 ug/mL, competitor hTIM3
T6 construct: Bought protein; also called hGal3; Gal3; not shown: linker-spaced 6-histidine tag

hGal3 peptide 6 = target: T1, hGal3 peptide 6; assay: peptide ELISA, 20-mer library (Epitope Mapping)
hGal3 peptide 4 = target: T2, hGal3 peptide 4; assay: peptide ELISA, 20-mer library (Epitope Mapping)
[2] = target: T6, Human Galectin-3 protein (Acro …); assay: SPR Biacore T200, antibody captured, Galectin-3 analyte
[3] = target: T6, Human Galectin-3 protein (Acro …); assay: ELISA, hGal3 coated, competitor hTIM3 (FIG. 24)
hGal3 peptide 1 = target: T3, hGal3 peptide 1; assay: peptide ELISA, 20-mer library (Epitope Mapping)
hGal3 peptide 7 = target: T4, hGal3 peptide 7; assay: peptide ELISA, 20-mer library (Epitope Mapping)
hGal3 peptide 8 = target: T5, hGal3 peptide 8; assay: peptide ELISA, 20-mer library (Epitope Mapping)
[4] = target: T6, Human Galectin-3 protein (Acro …); assay: ELISA titration, blocking of GAL3-TIM3; competitor TIM3

Binder	GAL3-TIM3 Blocking @ 3 ug/mL [1]	Kd [2]	other results
B1	33%	< 1 nM	binding result (hGal3 peptide 6): binds; binding result (hGal3 peptide 4): binds
B2	35%	8.2 nM	binding result (hGal3 peptide 6): binds; binding result (hGal3 peptide 4): binds
B3	0%	4.13 nM	reduction of TIM3-GAL3 binding [3]: ≤ 25%
B4	100%	10.2 nM	
B5	90%	2.73 nM	
B6	40%	27.8 nM	binding result (hGal3 peptide 1): binds; binding result (hGal3 peptide 7): binds; binding result (hGal3 peptide 8): binds
B7	48%	11.3 nM	binding result (hGal3 peptide 1): binds; binding result (hGal3 peptide 7): binds; binding result (hGal3 peptide 8): binds
B8	0%	2.53 nM	reduction of TIM3-GAL3 binding [3]: ≤ 25%
B9			IC50 [4]: 4.1 nM
B10			IC50 [4]: 26.5 nM
B11			IC50 [4]: 2.8 nM
B12	12%	1.9 nM	reduction of TIM3-GAL3 binding [3]: ≤ 25%
B13	86%	0.753 nM	binding result (hGal3 peptide 6): binds
B14	48%	5.22 nM	binding result (hGal3 peptide 6): binds
B15			IC50 [4]: 5.6 nM
B16	48%	< 1 nM	binding result (hGal3 peptide 4): binds
B17	81%	2.82 nM	
B18	61%	< 1 nM	
B19	81%	3.95 nM	
B20	80%	4.26 nM	
B21	82%	4.86 nM	
B22	57%	6.07 nM	binding result (hGal3 peptide 6): binds; binding result (hGal3 peptide 7): binds
B23	34%	< 1 nM	binding result (hGal3 peptide 6): binds; binding result (hGal3 peptide 7): binds
B24	44%	0.562 nM	binding result (hGal3 peptide 6): binds; binding result (hGal3 peptide 7): binds
